assay: soluble on expression in E. coli; label from the status in PepcDB or PDB records

| Sequence | soluble on expression in E. coli |
| --- | --- |
| MSLGNARMYEALRDYGDRFDTVGIFTFEVDETGTITETGTSISSMLPYIQKWPHIKWLLTIMNHGIANIFTALRNNENGAKDKFLTEIIRIMNKYPWCAGVDIDLERGGGYENKDAANALFRDIYNTVKSYDATKLVNICLPGMIGVQGSVGGENWCVYADLNDYCDTAAIMSYGMAWAGSAPGPVSPRDWLEGIYDYAVSVMSPDKIFMGLPAYGWNWRIHDTPENLGITYRGVSNTYYAAKYWMTGVYNFTGDAPPQPFIPIVAYWDDYNKVPWALPHVYDYMEGWDAVSWEYPLLKGVYNRRRYLTSYGKEQKAEFGTIYIDRNGVPDEYEGNVIITDEMTSLGDAQASAEYRFEIREAGYYDIAVQLCFPYWDKNAIIVSLDGISKTFSENEGHHHHHH | not soluble |
| MSLGPTRANPKAVKPFIEQKEKKMVLVVDWHTKTLAATMNGRRPQDEDAMVVHGPLKNFPNARLKAIFDGHGGYSVSRRCASVAYGYLGAMKNLSQESFRSACLQMDADMRADTLKGGSTGLMVIIEKVDDPESRDGIYFNVHAANVGDSRGLILHSDGTYTIMSKDHKPTAEVERERIKRAGGFLLRRLGVWRVDGRLALSRAFGDFALKDRLDMKPNEQKVVALPDVNVFKAKPGDIILMGCDELANTLKNIQWDGGTVCSRRPRGRRSRDNVSIMLTKLVKRPIRNTQVKRFDYSFTGERYVLPSEEGHHHHHH | not soluble |
| MSLGQLLSHPIEEKELDYKSYTNLTYCIGSMQGYRMTMEDAHDVKINEHENLAVFGIFDGHGGKNCSQYLAEHLPKLVFTKLNKIASAVYLKQVKDIDLKDVFDILKNSFFKIDKDLSHHANMVNCGSTATVVTIIANYIVVANTGDSRCIVSRNGHAKPLSFDHKPSNMGERVRIENSNGYILNNRINEVLALSRAFGDFKFKLPYLSSSRNKYIKENQKLLGDKLITLPPELFQVTVEPDIMLYDMQKLDSPEFLVIACDGVWDCFKNGQLVKLIRDKLSLGWRLNKIVEYILNDSLTMANNYTGIGFDNMTLIIVAIHKEGHHHHHH | soluble |
| MSLGQSKVVYLNTHSTSSAGVETLNELCRLAEPGLETMLRQALDQVDDALFDRAERAANNADQALFFATMRQVRMSRRMVVQTFTQEMESAFSRLTQPHSSQTQEPAATAREDYSLELMDETVVEERVAAETVVGKLRTRSVFPLAQLQSRLDYLVVERKVDERNNPLDPRQVVDAFAVAMERLNIEIQPKLIIFKLFEKQALRQLPALYEAANRLLIDAGIMPKLRATGEPLVANEDRVQAPESGHQTSVDSEADTLTGNGSATLELLQGLLAQARGGNQPVPSTARCAGGASHSDLVQALSALQQQPRFANNETGGAQPFAAEELKALLGSALFVAPGGLPQPIERAADDTIDIVSMLFDIILDDSRLAPSIKAVIARLQIPVLKVAMLDRSFFNSRQHPARALINELAHAAMGWVEPENPSADPLYRKMNEVMNRILEGFEEDIVLFEQVLQDFRLFLEQERERAQTVEARTCQAAEGKAKVEDARERVQAEIERRLRGGSVPSVVHQILEGPWFKVLFITCVKDGPQGAVWESQLELMDRLIWSVQPNADPERRQDVLARIPALLNDLREGLNAILYNPFEMTRLFEELEAEHIRCLSAPPADLSDNTVNVEQGSEDESAFAQEGSSYDCDEPSVAAEPPQLTEEQCLREECLQRLVRVDLGTWFEFSTDAGRQLRAKLSARLNGGRRLIFVNRAGFKLADKKTEEVAADLSSGKAFILDHNMLFDKALEQVITNLRDLRVEQAEGHHHHHH | not soluble |
| MSLGRNEPVIGITPSFDYNENKMYINNIYCEAIILSGGMPVLLPVTEDEGLLSQMVEEFDGFLLSGGPDVDAVHWGEWNYSYNGEISPHRDKMELFIAKEAVAKDKPIFGICRGIQVLNVALGGTLYQDIYSQNKEKRLIKHSQNAPRWYPVHKVMLKAGSKVRNAHGAESIAVNSFHHQAVREPAPDFIVTGTSEDGIIEAIEHKNCKFAVGVQWHPEHMWKRDLSFLNIFKYFVSSCLEGHHHHHH | soluble |
| MSLGRPAPFKVGALNSITGAGGTYGPGMLEAIKIGIAEVNAAGGAAGRELKLYAEDDQTRPDAAVLAARKLVDIQHVDAMIGIWSSAVQLATLPITNAAGILSFNTCGAPEIRTEDKRDLVFQFYASNAIIGAAFAAIGQRLGYKRAAVLGYNNATMSVQANHFKAAWEKKGNQIVSSAIYEPNQATYRTEVEKAVAAKPDVIVLSSYTPDATILLKEWYQTGYECKFIMPGYSATPALIKALGPDVMRNIVSTANVPASDNQAYKAFVEKFQAVTKSPPEMFAAAAYDMVITLALAIEAAGPDAKPADLSALVRQVSNPPGQKVSSFVQGRDLLRQKAKIDFDGASSSLDFDANGDTVPDFGIYEFDGKAFALKDVVPGATEGHHHHHH | soluble |
| MSLGSGTSTQHHFAFQNAERAFKAAALIQRWYRRYVARLEMRRRCTWSIFQSIEYAGQQDQVKLHDFFSYLMDHFIPSSHNDRDFLTRIFTEDRFAQDSEMKKCSDYESIEVPDSYTGPRLSFPLLPDHATALVEAFRLKQQLHARYVLNLLYETKKHLVQLPNINRVSTCYSEEITVCGDLHGQLDDLIFIFYKNGLPSPERSYVFNGDFVDRGKDSVEILMILFAFMLVYPKEFHLNRGNHEDHMVNLRYGFTKEVMNKYKVHGKEILRTLQDVFCWLPLATLIDEKVLILHGGVSDITDLELLDKIERSKIVSTMRSGTQEEWRQVVDILWSDPMAQEGCKANTIRGGGCYFGPDVTQQLLQKYNMQFLIRSHECKPEGYEFCHNRKVLTIFSASNYYEVGSNRGAYVKLGPALTPHIVQYQANKVTHTLTMRQREGHHHHHH | not soluble |
| MSLGSQGSGLEQSSFQWSPSGRRTGSLYCRVGIGFHLQIYPDGKVNGSHEANMLSVLEIFAVSQGIVGIRGVFSNKFLAMSKKGKLHASAKFTDDCKFRERFQENSYNTYASAIHRTEKTGREWYVALNKRGKAKRGCSPRVKPQHISTHFLPRFKQSEQPELSFTVTVPEKEGHHHHHH | not soluble |
| MSLGTNKDYIEYVHKVYDYLHTIPEKGFEEYKTSEFVLKELEKMGFENINKGVAGTGIIVTIDSKKEGPVFAIRADMDALEFIIDGEKKMIHACGHDGHTSMLLTAAKLIKERNLVKRGKLKILFQPGEEKLYGALRVIDSGLLDDVEEMVGMHLRPGQDCRLGKAIPAMYHCASCIMEFTIKGITCHGSKPHLGVNAVDAVCLAVNAINAIRVNPAIPNSIKVTNISVKGETYNNIPDEAFMALDIRAESNDIIEELKEKAIHAAKTAVSSINAEAVLISKDGVPAAEFDEELVNLAEETIKDVLGADASIGIFKNSGGEDFHYYTQKLKCKTTYIGLGADATPGFHNPNVTFDTKALEYGVDIWCRLVEKRLGEGHHHHHH | soluble |
| MSLGTVHARSLDPLPMQGPELGVQADDMDLGEPEREEKQEVLENKDVVVQHVHIDGLGRTKEDILTYEIADVFHAKNLIDVMKKSHEARQKLLRLGIFRHVEVVIDTAEGADALPNGLDVTFEVRELRRMTGSYNTMVGNNEGSMVLGIKLPNVLGRAEKLTFQFSYGTKETSYGLSFFKPQPGHFERNFSLNLYKVTGQFPWSSLRETDRGVSAEISFPIWRTSHTLKWEGVWRELGCLARTASFAVREESGHSLKSSLAHAMVIDTRNSTILPRKGALLKINQELAGYTGGDVSFLKEDFEIQLNKTLFWDSVLSTSLWGGMLLPLGEKASSIADRFYLGGPTSVRGFSMYSIGPQSEGDYLGGEAYWAGGVHLYTPLPFRPGRGGFGDLFRTHFFLNAGNLCNLNYGEGPRAHLSKLAECIRWSYGAGIVLRLGNIARLELNYCIPMGVQSGDRICDGVQFGAGIRFLEGHHHHHH | not soluble |
| MSLHDYCLPCPTSLSGIAEVNPMSKPLVRWPINPLRTAVIVVDMQKVFCEPTGALYVKSTADIVQPIQKLLQAARAAQVMVIYLRHIVRGDGSDTGRMRDLYPNVDQILARHDPDVEVIEALAPQSDDVIVDKLFYSGFHNTDLDTVLRARDVDTIIVCGTVTNVCCETTIRDGVHREYKVIALSDANAAMDYPDVGFGAVSAADVQRISLTTIAYEFGEVTTTAEVIRREGHHHHHH | not soluble |
| MSLHGKLIQFHKFGNPKDVLQVEYKNIEPLKDNEVFVRMLVRPINPSDLIPITGAYAHRIPLPNIPGYEGVGIVENVGAFVSRELIGKRVLPLRGEGTWQEYVKTSADFVVPIPDSIDDFTAAQMYINPLTAWVTCTETLNLQRNDVLLVNACGSAIGHLFAQLSQILNFRLIAVTRNNKHTEELLRLGAAYVIDTSTAPLYETVMELTNGIGADAAIDSIGGPDGNELAFSLRPNGHFLTIGLLSGIQVNWAEIVTKAKVHANIFHLRHWNDEVSPYKWQETFRHLIRLVENEQLRFMKVHSTYELADVKAAVDVVQSAEKTKGKVFLTSYEGHHHHHH | soluble |
| MSLHKKDIIRLLETIAVYMELKGDNPFKVSAFRKAAAALEQDDRSLSEMDDMMSLSGIGKGTYSVIKEYIDEGKSSTLESLQKEVPEGLVPLLKLPGLGGKKIAKLYKELGVHDAESLKEACEQQKVQGLAGFGKKSEEKILQALGEAGKQPERFPIGYALRIAREIEEHLSQFTHIIKFSRAGSLRRARETVKDLDYIIATDHPAEVREQLLELPNIKSVIASGDTKVSVILSFEYETSVDFRLVTEEQFPTTLHHFTGSKDHNIKMRQIAKERGERISEYGVETVETGEIKTFPSEREFYAHFGLPLIPPEIRESEGHHHHHH | soluble |
| MSLHLSNVILHQLCKNDQDELVVKLRPASLENDASTENLVAELHRVFHSKAGKGFGSFQSDSEFQFWLQEMRKGERDFYDFSQISANRLKEELIKYPFADEGILVFAEYQSLATDYLFIGILPMNQSLKVTEGLDISATDYLDITKMDIAARIDLSSYETDKESNRYLQYIKGRVGRKVADFFLDFLQADIGLDTKQQNLVLMQAVDDFCADSKLEKQEVNEYKKQVYNYCNEQIKSGEEVQISELSGELPPSQDGTSFMDFTKEQGYELEESFPGDRSTVRKLTKYVGAGGGLNISFDSLLLGERIFYDPETDTLTIKGTPPNLKDQLSRNLEHHHHHH | soluble |
| MSLHNVVISGTGLFTPANSISNEELVESFNTYVHQFNSDNAAAIERGEVQALTESNAAFIEKASGIKSRFVMDKDGILDPQRMAPRLPERSNDEWSVLCQMAVAAAEQALQRAGKTAADIDGVIVACSNLQRAYPAIAIEVQAALGIQGFGFDMNVACSSATFGIQAACNSVQLGQARAILMVNPEVCTGHLNFRDRDSHFIFGDAATAVVIERADLATSEHQFDIVSTKLLTQFSNNIRNNFGFLNRAAEEGIGARDKLFVQEGRKVFRDVCPMVAELIAAHLEENQLNVSDVKRFWLHQANLSMNHLIVKKLLCREASVEEAPVILDTYANTSSAGSVIAFHKYQDDLASGSLAVLSSFGAGYSIGSVLLRKREGHHHHHH | soluble |
| MSLHVKVIVFGGSGFLGSHLVNRLDADEMVYFSLEKGNSVTRKDAKWVSGDVTDYSKVAEAMKDVDVAIFAVEDWNADEKRNREILLDGIKNVVNAVKANNTEQKVVSFSIINHPSYPLEFFRTKRLVEDNTRVLKNGLVVRLSFLFGEGDHFTDRFRKLSERVGHLSPEGNLAPVYVDDVVKVVNSILKREGVYDICSNDNLPLIKIVNYIRKMNGKKEIGETKLEKAISAVVETGLFAEYEAHLLFQDYYRETNILDRYVKDPLSYLDFLRGISVTHTTEGHHHHHH | soluble |
| MSLHVLTLAIARAASIDELALAANKQRELVESLMSRGVRTRFVMELIAAVNEQIIEKAFELVVPPALHDQCCLVVLGSEGRGEQILKTDQDNALIIQDGLEWHQCQPIMETLTHTLLQLGYPLCPGKVMVNNPKWVRSQSDWKRTLTDWVKAARPEQVMDIAIFADAHAVAGNRALLAPVKAHLQHLMAGQELILAEFTRPALNFSVPLTLFGNVKSSKQGIDIKQGGIFPIVHGVRALSLEHAIDANNTFDRIEALVKKRVLEQETGDNLSEAFKLFLKLRLAQQLGNQHSTNQLDFKQLDRTERDLLRHSLHVVKKFKQWLGYHYQIRDEGHHHHHH | soluble |
